From the supplement of paper PMC11136658

System: peptide library, one residue held at a place counted from the Y acceptor
Experiment: relative phosphorylation of the sub-library (ratio to the mean residue at this position); higher = residue favoured
Procedure, shortened: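 Every value reflects phosphorylation relative to the mean randomized residue. The sum of the 18 randomized residues, or 16 in the Ser/Thr-free library, served to normalize intensities at each position, which were then multiplied by that number. Intensities came from phosphorimaging with ImageQuant of biotinylated Tyr-centred peptides captured on streptavidin membranes after 90 min with purified recombinant kinases and 50 μM ATP plus γ-32P-ATP.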

MATK, construct: Full length, human, sequence (P42679 whole entry, looked up): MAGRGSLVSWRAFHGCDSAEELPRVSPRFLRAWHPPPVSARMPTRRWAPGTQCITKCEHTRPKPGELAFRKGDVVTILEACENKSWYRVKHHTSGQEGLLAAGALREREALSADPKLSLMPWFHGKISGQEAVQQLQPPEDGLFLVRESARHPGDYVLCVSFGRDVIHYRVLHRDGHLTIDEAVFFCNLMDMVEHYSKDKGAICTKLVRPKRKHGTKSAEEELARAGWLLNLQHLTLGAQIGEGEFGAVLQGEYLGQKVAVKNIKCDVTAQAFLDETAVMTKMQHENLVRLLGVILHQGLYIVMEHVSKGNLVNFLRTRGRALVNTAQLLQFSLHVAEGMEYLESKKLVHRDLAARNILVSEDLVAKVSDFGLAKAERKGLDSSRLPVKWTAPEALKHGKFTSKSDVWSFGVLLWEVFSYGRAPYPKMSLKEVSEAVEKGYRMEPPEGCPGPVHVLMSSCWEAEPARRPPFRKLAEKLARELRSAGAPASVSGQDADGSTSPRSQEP
LYN, construct: Full length, human, sequence (P07948 whole entry, looked up): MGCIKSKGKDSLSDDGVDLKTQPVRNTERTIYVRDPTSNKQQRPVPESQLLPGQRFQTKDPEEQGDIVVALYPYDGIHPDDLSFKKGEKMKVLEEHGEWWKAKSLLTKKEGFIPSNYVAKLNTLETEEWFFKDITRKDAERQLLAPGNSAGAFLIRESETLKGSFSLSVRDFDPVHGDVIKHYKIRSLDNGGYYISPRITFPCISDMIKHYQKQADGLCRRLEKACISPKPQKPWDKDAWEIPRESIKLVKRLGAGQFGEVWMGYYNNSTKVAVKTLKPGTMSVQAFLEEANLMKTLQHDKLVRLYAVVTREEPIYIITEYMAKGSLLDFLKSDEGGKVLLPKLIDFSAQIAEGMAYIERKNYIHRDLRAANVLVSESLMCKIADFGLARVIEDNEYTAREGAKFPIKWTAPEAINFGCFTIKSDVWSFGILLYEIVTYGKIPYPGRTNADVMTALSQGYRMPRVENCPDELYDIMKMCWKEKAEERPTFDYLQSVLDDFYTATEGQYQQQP

LIMK2, construct: Full length, human (from UniProt P53671)
relative phosphorylation
Conditions | at +1 | at +2 | at +3 | at +4 | at +5 | at -1 | at -2 | at -3 | at -4 | at -5
A fixed | 0.976 | 0.966 | 1.08 | 1.3 | 0.842 | 1.01 | 0.854 | 1.04 | 1.16 | 1.03
D fixed | 0.585 | 0.603 | 0.651 | 0.577 | 0.528 | 0.594 | 0.554 | 0.548 | 0.717 | 0.683
E fixed | 0.556 | 0.664 | 0.635 | 0.693 | 0.554 | 0.615 | 0.56 | 0.529 | 0.643 | 0.723
F fixed | 0.891 | 1.1 | 0.986 | 0.945 | 0.84 | 0.819 | 0.936 | 0.877 | 0.858 | 0.92
G fixed | 0.979 | 1.06 | 1.1 | 1.48 | 1.07 | 1.08 | 1.08 | 1.24 | 1.27 | 1.05
H fixed | 1.33 | 1.11 | 1.25 | 1.39 | 1.13 | 1.05 | 1.18 | 1.14 | 0.993 | 1.13
I fixed | 0.695 | 0.788 | 0.744 | 0.691 | 0.53 | 0.782 | 0.82 | 0.632 | 0.691 | 0.818
K fixed | 1.65 | 1.47 | 1.31 | 1.43 | 1.73 | 1.54 | 1.51 | 1.6 | 1.46 | 1.46
L fixed | 0.739 | 0.931 | 0.795 | 0.891 | 0.749 | 0.896 | 0.86 | 0.865 | 0.815 | 0.849
M fixed | 0.822 | 1.01 | 1.1 | 0.899 | 0.75 | 0.922 | 0.857 | 0.669 | 0.79 | 0.744
N fixed | 0.958 | 0.851 | 0.879 | 0.724 | 1.07 | 1.1 | 1.07 | 1.09 | 0.928 | 0.852
P fixed | 1.23 | 1.31 | 1.33 | 1.4 | 1.13 | 1.28 | 1.26 | 1.33 | 1.19 | 1.15
Q fixed | 1.05 | 0.775 | 0.831 | 0.66 | 1.12 | 0.944 | 0.911 | 1.13 | 0.988 | 0.893
R fixed | 1.79 | 1.28 | 1.3 | 1.19 | 2 | 1.65 | 1.6 | 1.59 | 1.55 | 1.52
V fixed | 0.647 | 0.84 | 0.78 | 0.713 | 0.689 | 0.715 | 0.887 | 0.765 | 0.783 | 0.774
W fixed | 1.1 | 1.23 | 1.22 | 1.02 | 1.28 | 0.986 | 1.05 | 0.96 | 1.16 | 1.4
pThr fixed | 0.62 | 0.618 | 0.541 | 0.618 | 0.406 | 0.623 | 0.566 | 0.539 | 0.717 | 0.671
pTyr fixed | 0.617 | 0.693 | 0.604 | 0.497 | 0.519 | 0.868 | 0.658 | 0.599 | 0.627 | 0.759

LYN, construct: Full length, human (from UniProt P07948)
relative phosphorylation
Conditions | at +1 | at +2 | at +3 | at +4 | at +5 | at -1 | at -2 | at -3 | at -4 | at -5
A fixed | 1.69 | 0.956 | 0.493 | 0.796 | 0.932 | 0.577 | 1.02 | 0.769 | 1.09 | 1.05
D fixed | 0.936 | 0.672 | 0.237 | 0.582 | 0.535 | 0.838 | 1.44 | 1.77 | 1.3 | 1.27
E fixed | 1.64 | 1.58 | 0.258 | 0.623 | 0.514 | 1.1 | 1.63 | 2.4 | 1.61 | 1.09
F fixed | 0.757 | 1.12 | 3.21 | 1.07 | 1.48 | 1.27 | 0.808 | 1.09 | 1.44 | 1.06
G fixed | 2.35 | 0.704 | 0.661 | 0.923 | 1 | 0.445 | 1.2 | 0.939 | 1.14 | 1.04
H fixed | 0.807 | 0.613 | 0.68 | 1.22 | 0.988 | 0.505 | 0.773 | 0.703 | 0.641 | 0.871
I fixed | 1.15 | 1.13 | 2.63 | 0.899 | 0.956 | 3.44 | 1.05 | 0.802 | 0.922 | 1.02
K fixed | 0.22 | 0.682 | 0.443 | 1.25 | 1.21 | 0.21 | 0.489 | 0.427 | 0.582 | 0.805
L fixed | 0.822 | 0.804 | 1.47 | 0.911 | 1.04 | 2.08 | 0.993 | 0.835 | 1.24 | 1.03
M fixed | 1.04 | 0.935 | 0.896 | 1.09 | 0.848 | 0.982 | 0.635 | 0.992 | 0.992 | 1.07
N fixed | 0.628 | 0.943 | 0.347 | 0.803 | 0.66 | 0.381 | 1.14 | 1.09 | 0.82 | 1.09
P fixed | 0.226 | 0.911 | 0.638 | 1.06 | 1.28 | 0.791 | 1.14 | 1.24 | 0.991 | 1.03
Q fixed | 1.1 | 0.963 | 0.352 | 1.14 | 0.778 | 0.463 | 1.03 | 0.917 | 1.19 | 1.09
R fixed | 0.31 | 0.92 | 0.974 | 1.38 | 1.32 | 0.2 | 0.524 | 0.45 | 0.6 | 0.762
S fixed | 1.05 | 1.31 | 0.507 | 0.974 | 1.05 | 0.413 | 1.16 | 0.905 | 0.721 | 0.833
T fixed | 0.795 | 1.33 | 0.59 | 0.851 | 1.01 | 1.22 | 0.964 | 0.823 | 0.669 | 0.765
V fixed | 1.3 | 1.2 | 1.4 | 0.824 | 0.893 | 2.27 | 1.02 | 0.696 | 0.803 | 0.885
W fixed | 1.18 | 1.22 | 2.21 | 1.61 | 1.5 | 0.811 | 0.977 | 1.15 | 1.25 | 1.23
pThr fixed | 0.927 | 1.68 | 0.243 | 0.385 | 0.435 | 2.22 | 1.34 | 1.24 | 1.14 | 1.11
pTyr fixed | 1.36 | 1.98 | 0.397 | 0.897 | 0.487 | 1.35 | 1.2 | 1.49 | 1.45 | 1.21

MATK, construct: Full length, human (from UniProt P42679)
relative phosphorylation
Conditions | at +1 | at +2 | at +3 | at +4 | at +5 | at -1 | at -2 | at -3 | at -4 | at -5
A fixed | 1.54 | 0.899 | 0.728 | 0.85 | 0.892 | 0.545 | 0.986 | 0.875 | 1.17 | 0.971
D fixed | 0.52 | 0.698 | 0.362 | 0.806 | 0.935 | 1.04 | 0.725 | 1.43 | 1.29 | 1.34
E fixed | 1.01 | 0.877 | 0.364 | 1.15 | 1.09 | 2.07 | 1.36 | 2.47 | 1.78 | 1.26
F fixed | 0.735 | 1.12 | 1.38 | 0.839 | 1.18 | 0.512 | 0.538 | 0.854 | 0.872 | 0.935
G fixed | 0.643 | 0.46 | 0.667 | 0.962 | 0.845 | 0.407 | 1.23 | 0.95 | 1.39 | 1.18
H fixed | 1.61 | 0.658 | 1.15 | 1.49 | 1 | 1.71 | 1.09 | 1.08 | 0.975 | 1.01
I fixed | 0.964 | 0.972 | 1.95 | 0.803 | 0.862 | 2.32 | 0.822 | 0.599 | 0.724 | 0.922
K fixed | 0.833 | 0.932 | 1.12 | 1.19 | 0.979 | 0.703 | 0.911 | 0.76 | 0.982 | 0.986
L fixed | 0.776 | 1.24 | 1.51 | 0.876 | 0.881 | 0.905 | 0.737 | 0.683 | 0.756 | 0.763
M fixed | 1.22 | 1.32 | 0.915 | 0.998 | 0.983 | 0.954 | 0.677 | 0.736 | 0.749 | 0.845
N fixed | 0.804 | 1.3 | 0.491 | 1.14 | 1.09 | 0.988 | 1.03 | 1.23 | 0.879 | 1.1
P fixed | 0.521 | 0.763 | 1.08 | 1.15 | 0.952 | 0.536 | 1.15 | 1.07 | 1.1 | 1.06
Q fixed | 1.13 | 0.885 | 0.749 | 0.856 | 0.991 | 1.02 | 1 | 0.8 | 1.1 | 1.09
R fixed | 1.04 | 1.42 | 1.19 | 1.4 | 1.24 | 0.706 | 1 | 0.967 | 1.04 | 1.09
S fixed | 1.1 | 0.845 | 0.674 | 0.789 | 1.11 | 0.423 | 1.77 | 1.06 | 0.803 | 0.738
T fixed | 0.927 | 0.839 | 0.842 | 0.772 | 1.01 | 0.818 | 1.41 | 0.868 | 0.713 | 0.923
V fixed | 1.24 | 0.848 | 1.46 | 0.665 | 0.832 | 1.72 | 0.887 | 0.696 | 0.668 | 0.724
W fixed | 1.38 | 1.93 | 1.37 | 1.27 | 1.14 | 0.627 | 0.671 | 0.869 | 1 | 1.06
pThr fixed | 1.28 | 1.53 | 0.438 | 0.544 | 0.806 | 0.806 | 1.4 | 2.14 | 1.28 | 0.879
pTyr fixed | 3.3 | 3.6 | 0.787 | 1.2 | 0.998 | 9.49 | 2.64 | 4.79 | 3 | 1.8
